Where two headings read alike, the source gives them in different places. Each block holds one molecule with its values, some of them ahead of it.
How the values were obtained:
[1] = biological target: T1, FtsZ (E. coli (by the printed UniProt entry; not said in words for the construct)); test: single molecule tracking
[2] = biological target: T1, FtsZ (E. coli); test: FRAP
[3] = biological target: T1, FtsZ (E. coli); test: single molecule tracking; remark: listed apart in the source
[4] = biological target: the molecule itself; test: SEC

lifetime of single FtsZ monomers in the filaments (with ZapA) [1]: 6.01 s
lifetime of single FtsZ monomers in the filaments (without ZapA) [1]: 6.59 s
FRAP recovery half-time (at 6.0 μM ZapA) [2]: 6.66 s
FRAP recovery half-time (in the absence of ZapA) [2]: 7.63 s
Molecule: FtsZ (natural protein)

lifetime of single molecules on FtsZ filaments [1]: 0.94 s
lifetime of single molecules on FtsZ filaments [3]: 0.95
FRAP recovery half-time [2]: 3.01 s
Molecule: ZapA-Cy5 (natural protein)

B1: ZapA (natural protein, UniProt P0ADS2 1-109, looked up)
chain: MSAQPVDIQIFGRSLRVNCPPDQRDALNQAADDLNQRLQDLKERTRVTNTEQLVFIAALNISYELAQEKAKTRDYAASMEQRIRMLQQTIEQALLEQGRITEKTNQNFE
binding result [4]: binds

From publication doi:10.1101/580944 (bioRxiv, 2019)
